Results from patent US8487082B2, “Synthetic scFv analogue to the 6313/G2 (anti angiotensin II type 1 receptor) monoclonal antibody variable regions” (Queen Mary & Westfield College, priority 2008, dated 2013).
Entries after “also recorded” stand apart in the source; their conditions may differ.

Tests used:
T47D cells [1] = assay: Apoptosis - caspase-3/7 activity; type: cell-based; conditions: 100 nmol/L angiotensin II, 12 hours
Description: Cells were harvested using Trypsin/EDTA and counted.

T47D cells [2] = assay: Cell viability assay (XTT); type: cell-based; conditions: Homo sapiens, Losartan alone, 25 μmol/L
Experimental: (§1) MCF-7, T47D and MDA-MB-231 breast cancer cells were obtained from The American Tissue Culture Collection (LGC Promochem, Teddington, UK). Rat aortic smooth muscle cells (RASMC) were developed from primary culture (Barker et al., 1996). MCF-7 cells were maintained in Minimal Essential Medium (MEM), T47D and MDA-MB-231 cells in RPMI 1640 medium, and RASMC were maintained in Dulbecco's Modified Eagle's Medium (DMEM). All media were supplemented with 2 mM L-glutamine, 10% fetal bovine serum (FBS), 50 U/ml penicillin and 0.05 mg/ml streptomycin. Cells were maintained at 37° C. in a humidified atmosphere ([…], 5% CO2).
(§2) Confluent cell monolayers were removed from tissue culture flasks using trypsin/EDTA. Cells (15×10^3 per well) were seeded into 96 well tissue culture plates containing the appropriate medium for each cell line. […] Cell viability was assessed by the ability of metabolically active cells to reduce 2,3-bis[2-Methoxy-4-nitro-5-sulphophenyl]-2H-tetrazolium-5-carboxyanilide inner salt (XTT) to the coloured formazan product. Absorbance was measured using a Multiskan Ascent microplate reader (Thermo Labsystem, Helsinki, Finland) at a wavelength of 450 nm and a reference wavelength of 630 nm. Each measurement was performed in triplicate. IC50s were calculated using a non-linear regression formula using GraphPad Prism v4.0 software (GraphPad Software Inc, San Diego Calif., USA).

MDA-MB-231 cells = assay: Cell viability assay (XTT); type: cell-based; conditions: MDA-MB-231, Losartan alone, all concentrations used
Experimental: as §1, §2

MCF-7 cells = assay: Cell viability assay (XTT); type: cell-based; conditions: MCF-7, Losartan alone, all concentrations used
Experimental: as §1, §2

[3] = target: peptide antigen EDGIKRIQDDC-biotin (from AT1-receptor N-terminal region) (Rattus norvegicus, UniProt P25095); assay: Antigen binding ELISA of scFv variants; conditions: for activity in ELISA compared with murine scFv (12D): FIG. 13, indirect comparison against purified IgM; for binding to peptide antigen by ELISA versus murine scFv (12D and 11B): absorbance 450 nm per mg protein/well, FIG. 12
Experimental: Enzyme-linked immunosorbant assays (ELISAs) were carried out in Maxisorp 96-well plates coated with Peptide antigen EDGIKRIQDDC-biotin (SEQ ID NO:14) (2-8 ug/ml in carbonate buffer pH 9.6) overnight at 4 or 37 C. The coated wells were blocked using 1% alkaline soluble casein (Blocking buffer) for 1 h at RT, then washed three times with PBS containing 0.1% v/v Tween 20. ScFv samples diluted between 1:1 to 1:100 in PBS-T were added and incubated for 1 h at RT before washing as before. A secondary HRP-conjugated anti-His-Tag antibody was then added (diluted 1:1000 in blocking buffer) for 1 h at RT. Wells were then washed three times in PBS-T then twice with PBS (without Tween 20). 100 μl of TMB substrate solution was added and colour was allowed to develop for 30 min, at which time 100 μl of 2M sulphuric acid was added to stop the reaction. Absorbance at 450 nm was read on a plate reading spectrophotometer. Protein concentrations were determined using an Eppendorf Biophotometer reading at 280 nm and using an extinction coefficient for the scFv of 1.7 as above.

[4] = target: biotinylated peptide antigen (AT1 receptor) (Rattus norvegicus, UniProt P25095); assay: Quartz crystal microbalance binding (Attana 100); conditions: 9 μg/ml, 100 second injection period
Experimental: Data were obtained comparing the characteristics of binding of the scFv variants and IgM to immobilised peptide antigen using the Attana 100 Quartz Crystal Microbalance. This involved use of a streptavidin (0.1 mg/ml)-coated biotin “chip” (gold-plated quartz crystal in an Attana 100 Biosensor (Quartz crystal microbalance (QCM)) (Attana AB, Stockholm, Sweden). Peptide antigen corresponding to that sequence used to raise the original murine hybridoma, biotinylated at the C-terminus, was then run across the chip at a concentration of 4 μg/ml to create a binding target for scFvs and IgM that were subsequently run across the surface of the QCM chip. Attester software (Attana, Sweden) was used to monitor changes in resonance frequency of the QCM chip in response to binding of a test antibody to the antigen. The magnitude of deflection in Hz over the period of sample injection of 100 s in Hz/second was determined for each antibody at a concentration of 9 μg/ml. The rate at which the antibody was then released from the QCM chip was also measured in Hz/second from the straight-line portion of the biosensor trace as antibody gradually departed from the chip and as the resonance frequency of the chip decreased. Running buffer was PBS containing 0.005% Tween 20 (PBST) and this was also used to make antibody dilutions to give a final protein concentration of 9 μg/ml in each case. The Attana 100 was set up with a 50 μl injection loop and was running with a constant pump speed of 20 μl/min. Samples and PBST buffer controls were injected over 100 seconds giving a sample volume across the chip of 33 μl. 100 mM (6.6 μl volume) phosphoric acid solution was used to regenerate the strepavidin-antigen surface between individual experimental sample runs.

Molecule	activity in ELISA compared with murine scFv (12D) [3]	binding to peptide antigen by ELISA versus murine scFv (12D and 11B) [3]	change in resonance frequency (apparent on-rate, Hz/second) compared with IgM [4]	other results
angiotensin II (DRVYIHPF; Angiotensin-2; UniProt P01019 25-32, looked up) [peptide hormone added at 100 nmol/L in the cell assays, reference compound]				caspase-3/7 activity compared with untreated control (T47D cells [1]): inhibited caspase-3/7 activity
CCCCc1nc(Cl)c(CO)n1Cc1ccc(-c2ccccc2-c2nn[nH]n2)cc1 [Losartan, reference compound]				inhibition at 25 µM (T47D cells [2]): 43%; effect on cell survival (MDA-MB-231 cells): unaffected; effect on cell survival (MCF-7 cells): unaffected
HuCY: humanised (resurfaced) variant of scFv R6313/G2, SEQ ID NO:27 (protein, HuCY) scFv: QVQLVQSGPELVKPGASVKISCKASGYSFTGYNMNWVKQAPGKSLEWIGNIDPYYGGTTYNQKFKGKATLTVDKSSSTAYMQLKSLRSEDTAVYYCAREVDYWGQGTTVTVSSGGGGSGGGGSGGGGSDIVLTQSPASLAVSLGERATISCRASKSVSTSGYSYMHWYQQKPGQPPRLLIYLVSNLESGVPDRFSGSGSGTDFTLTISSVEAEDVAVYYCQHIRELTRSEGTKLEIKR	higher activity	more strongly; also recorded: increased binding		
var3: humanised variant of scFv R6313/G2, framework changes only, SEQ ID NO:28 (protein, var3) scFv: QVQLVQSGPELVKPGASVKISCKASGYSFTGYNMNWVKQAPGKGLEWIGNIDPYYGGTTYNQKFKGKATLTVDKSSSTAYMQLKSLRSEDTAVYYCAREVDYWGQGTTVTVSSGGGGSGGGGSGGGGSDIVLTQSPASLAVSLGERATISCRASKSVSTSGYSYMHWYQQKPGQPPRLLIYLVSNLESGVPDRFSGSGSGTDFTLTISSVEAEDVAVYYCQHIRELTRSEGTKLEIKR		more strongly; also recorded: increased binding	significantly greater increases in resonance frequency; also recorded: significantly greater changes in resonance frequency	
var4: humanised variant of scFv R6313/G2 with two further changes in VLCDR2 (LVSDLED), SEQ ID NO:29 (protein, var4) scFv: QVQLVQSGPELVKPGASVKISCKASGYSFTGYNMNWVKQAPGKGLEWIGNIDPYYGGTTYNQKFKGKATLTVDKSSSTAYMQLKSLRSEDTAVYYCAREVDYWGQGTTVTVSSGGGGSGGGGSGGGGSDIVLTQSPASLAVSLGERATISCRASKSVSTSGYSYMHWYQQKPGQPPRLLIYLVSDLEDGVPDRFSGSGSGTDFTLTISSVEAEDVAVYYCQHIRELTRSEGTKLEIKR	higher activity	more strongly; also recorded: increased binding; also recorded: most significantly increased binding	significantly greater increases in resonance frequency; also recorded: significantly greater changes in resonance frequency	increase in binding to the antigen compared with murine scFv ([3]; ELISA, same amount and purity of scFv): 5-10 fold
